The assay concerns the target T1, wild-type (WT Asp) peptide GEKKGNYVVTDH (also: biotin (site not given here)).
T1 chain: GEKKGNYVVTDH
The assay is described as follows: SPR.

Where no end group is shown, it is not given here.

B1: humanized version of the 1i8i Fab (Parent) (Fab, V domains shown)
VH: EVQLVESGGGLVQPGGSLRLSCVTSGFTFRKFGMSWVRQAPGKGLEWVASISTGGYNTYYSDSVKGRFTISRDNSKNTLYLQMNSLRAEDTAVYYCTRGYSSTSYAMDYWGQGTLVTVSS
VL: DIVLTQSPATLSLSPGERATLSCMTSTDIDDDMNWYQQKPGQAPRLLISEGNTLRPGVPARFSGSGSGTDFTLTISSLEPEDFAVYYCLQSFNVPLTFGQGTKVEIK
In turn, B1 registered a kon of 338000 M⁻¹ s⁻¹.
